In article doi:10.1101/2022.06.21.496973:

Tests used:
[1] = biological target: taxol-stabilized microtubules (co-sedimentation assays) (porcine) (UniProt P02550); assay: co-sedimentation
[2] = biological target: taxol-stabilized rhodamine-labeled, biotinylated microtubules stored overnight at 23°C or 37°C (damaged MTs) (porcine) (UniProt P02550); assay: TIRF microscopy of eGFP fluorescence on immobilised microtubules
[3] = biological target: 6XHis-1024-1090 (Abl2 site II fragment) (murine) (UniProt Q4JIM5); assay: BLI
[4] = biological target: 6XHis-557-C (Abl2 C-terminal half) (murine) (UniProt Q4JIM5); assay: BLI
[5] = biological target: 6XHis-Abl2 (murine Abl2, residues 74-1182) (murine) (UniProt Q4JIM5); assay: BLI
[6] = biological target: 6XHis-688-924 (Abl2 site I fragment) (murine) (UniProt Q4JIM5); assay: BLI

| Kd [1] [nM] | Kd [3] [nM] | Kd [4] [nM] | Kd [5] [nM] | Kd [6] [nM] | Substance | mean fluorescence intensity per µm on MTs stored at 23°C [2] [a.u.·µm^-1] | mean fluorescence intensity per µm on MTs stored at 37°C [2] [a.u.·µm^-1] | mean intensity on borders of damage, MTs stored at 23°C [2] [a.u.] | mean intensity on borders of damage, MTs stored at 37°C [2] [a.u.] | mean intensity on lattices, MTs stored at 23°C [2] [a.u.] | mean intensity on lattices, MTs stored at 37°C [2] [a.u.] |
| --- | --- | --- | --- | --- | --- | --- | --- | --- | --- | --- | --- |
| 400 | – | – | – | – | 6XHis-Abl2Δ688-790 (naturally occurring splice isoform) (from UniProt Q4JIM5 74-1182) (natural protein) | – | – | – | – | – | – |
| 320 | – | – | – | – | Abl2-eGFP (from UniProt Q4JIM5 74-1182) (natural protein) | 0.91 | 0.71 | 0.39 | 0.38 | 0.3 | 0.28 |
| – | 252 | 17 | 42 | 118 | porcine brain tubulin dimers (from UniProt P02550 1-451; Q767L7 1-444) (complex) | – | – | – | – | – | – |
